Experimental data: the Human Domainome abundance scans (Beltran et al. 2025)

B1: FERM and PDZ domain-containing protein 4, residues 75 to 154; numbered along this chain, Q14CM0 (parent)
chain: APRKVEMRRDPVLGFGFVAGSEKPVVVRSVTPGGPSEGKLIPGDQIVMINDEPVSAAPRERVIDLVRSCKESILLTVIQP

Variants of: B1
Assay: abundance fitness (aPCA) (normalised: wild type 0, dead -1); higher = more abundant; growth selection in yeast, the domain comes from the species named
Details: Homo sapiens

Abundance fitness: each site, then its substitutions
V66: H -0.686 | C -0.08 | R -0.818 | K -0.692 | E -0.427 | Y -0.382 | T -0.18 | D -0.681 | I -0.009 | A -0.219 | M -0.004 | G -0.73 | Q -0.451 | L 0.022 | S -0.569 | N -0.733 | P -0.881 | W -0.475 | F -0.056
L75: H -0.553 | C -0.257 | R -0.631 | Y -0.749 | D -0.343 | N -0.773 | M -0.022 | S -0.558 | Q -0.542 | V -0.097 | P -0.185 | W -0.629 | I -0.118 | T -0.404 | K -0.387 | E -0.514 | A -0.332 | F -0.101
E71: Y -0.231 | A -0.095 | G -0.041 | H -0.081 | T -0.052 | D 0 | V -0.164 | M -0.198 | L -0.232 | P -0.219 | C -0.149 | K 0 | W -0.215 | N -0.106 | R -0.059 | Q -0.038 | I -0.261 | S -0.055
I63: H -0.003 | L 0.009 | M -0.027 | N 0.034 | T -0.061 | R -0.033 | D -0.035 | V -0.002 | K -0.032 | Q -0.001 | A 0.005 | Y -0.087 | P -0.846 | E -0.031 | W -0.041 | C -0.093 | F 0.016 | S 0.021
K70: M -0.17 | S -0.054 | A -0.1 | E -0.061 | I -0.311 | F -0.256 | P -0.052 | W -0.323 | N -0.076 | D -0.055 | L -0.306 | V -0.168 | Q -0.078 | Y -0.153 | T -0.098 | R -0.081 | C -0.115 | H -0.096 | G -0.093
V77: H -0.681 | L -0.105 | C -0.07 | A -0.259 | T -0.231 | R -0.728 | D -0.658 | M -0.475 | G -0.653 | I -0.098 | S -0.655 | W -0.981 | K -0.523 | Y -0.815
I78: E 0.044 | Y -0.053 | H -0.015 | L -0.024 | M 0.022 | S 0.01 | R 0.005 | P -0.569 | C -0.029 | K 0.036 | W -0.063 | A 0.028 | Q 0.025 | N -0.049 | F -0.042 | T 0.037 | G -0.079
L74: F 0.016 | Q 0.03 | M 0.011 | I 0.145 | P -0.366 | R 0.037 | W -0.024 | C 0.038 | D 0.012 | T -0.014 | N -0.035 | G 0.009 | E 0.005 | H 0.005 | K 0.026 | A -0.006 | Y 0.131 | S 0.024 | V 0.012
T76: M -0.154 | K -0.036 | N 0.002 | D -0.073 | C -0.088 | R -0.058 | Q -0.095 | H -0.05 | P -0.639 | S -0.047 | I -0.156 | E -0.025 | Y -0.005 | A -0.132 | V -0.133 | W -0.18 | L -0.163
R67: C -0.055 | G -0.038 | S -0.013 | W -0.182 | I -0.159 | D -0.018 | M -0.064 | Y -0.06 | F -0.095 | N 0.017 | E 0.005 | A -0.01 | T -0.018 | Q 0.001 | V -0.079 | L -0.105 | K 0.002 | P -0.808
R61: V -0.044 | W -0.082 | Y -0.019 | N -0.041 | Q -0.005 | K -0.01 | I -0.107 | P -0.505 | M -0.059 | S -0.029 | T -0.037
C69: N -0.056 | M -0.1 | L -0.236 | S -0.025 | D -0.323 | P -0.378 | H -0.064 | R -0.119 | V -0.091 | E -0.059 | Q -0.034 | F -0.159 | T -0.044 | W -0.591 | I -0.19 | A 0.004 | G -0.209 | K -0.089
P80: I -0.413 | E -0.164 | G -0.074 | D -0.28 | A -0.086 | H -0.165 | C -0.157 | F -0.387 | K -0.138
D64: R -0.049 | Q -0.013 | P -0.51 | H -0.045 | F -0.354 | A -0.081 | M -0.247 | T -0.109 | S -0.023 | C -0.295 | Y -0.252 | W -0.222 | K -0.06 | E -0.011 | V -0.593 | N -0.055 | I -0.788 | G -0.038 | L -0.466
V62: F -0.17 | E -0.86 | A -0.32 | D -0.793 | Q -0.745 | M -0.383 | R -0.917 | S -0.666 | K -1.03 | G -0.936 | Y -0.248 | N -0.738 | L -0.199 | W -0.4 | H -0.711 | T -0.25 | P -0.841
Q79: G 0.03 | W -0.233 | R 0.074 | H -0.027 | E -0.017 | D -0.002 | F -0.262 | P -0.019 | V -0.236 | A 0.035 | N -0.045 | C 0.012 | I -0.425 | K -0.029 | L -0.165 | S 0.022 | Y -0.09 | T 0.028
S68: M -0.071 | P -0.578 | I -0.214 | V -0.17 | C -0.082 | T -0.043 | Q -0.001 | L -0.092 | R -0.048 | A -0.033 | K -0.043 | Y -0.089 | D -0.042 | F -0.099 | E -0.007 | W -0.21
S72: Q -0.004 | C -0.111 | K 0.009 | M -0.11 | W -0.234 | N -0.028 | P -0.284 | H -0.015 | V -0.104 | A -0.072 | I -0.177 | Y -0.129 | F -0.167 | D -0.014 | R -0.019 | T -0.011
I73: S -0.462 | C -0.045 | E -0.463 | R -0.669 | F -0.242 | P -0.57 | Y -0.755 | G -0.565 | T -0.202 | L -0.023 | H -0.793 | N -0.369 | W -0.954 | V -0.025
L65: E -0.249 | W -0.244 | H -0.205 | I -0.052 | Q -0.094 | C -0.158 | Y -0.076 | G -0.377 | N -0.349 | A -0.056 | R -0.093 | F -0.109 | K -0.022 | D -0.462 | P -0.841 | T -0.114 | S -0.178 | V -0.105 | M -0.002
